Results as given in patent US20190015483A1 (CSL BEHRING RECOMBINANT FACILITY, published 2019).

T1: recombinant Factor VIII (CSL627, rVIII-SingleChain) (Homo sapiens (Human), UniProt P00451 20-2351)
T1 construct: also called FVIII
T1 sequence: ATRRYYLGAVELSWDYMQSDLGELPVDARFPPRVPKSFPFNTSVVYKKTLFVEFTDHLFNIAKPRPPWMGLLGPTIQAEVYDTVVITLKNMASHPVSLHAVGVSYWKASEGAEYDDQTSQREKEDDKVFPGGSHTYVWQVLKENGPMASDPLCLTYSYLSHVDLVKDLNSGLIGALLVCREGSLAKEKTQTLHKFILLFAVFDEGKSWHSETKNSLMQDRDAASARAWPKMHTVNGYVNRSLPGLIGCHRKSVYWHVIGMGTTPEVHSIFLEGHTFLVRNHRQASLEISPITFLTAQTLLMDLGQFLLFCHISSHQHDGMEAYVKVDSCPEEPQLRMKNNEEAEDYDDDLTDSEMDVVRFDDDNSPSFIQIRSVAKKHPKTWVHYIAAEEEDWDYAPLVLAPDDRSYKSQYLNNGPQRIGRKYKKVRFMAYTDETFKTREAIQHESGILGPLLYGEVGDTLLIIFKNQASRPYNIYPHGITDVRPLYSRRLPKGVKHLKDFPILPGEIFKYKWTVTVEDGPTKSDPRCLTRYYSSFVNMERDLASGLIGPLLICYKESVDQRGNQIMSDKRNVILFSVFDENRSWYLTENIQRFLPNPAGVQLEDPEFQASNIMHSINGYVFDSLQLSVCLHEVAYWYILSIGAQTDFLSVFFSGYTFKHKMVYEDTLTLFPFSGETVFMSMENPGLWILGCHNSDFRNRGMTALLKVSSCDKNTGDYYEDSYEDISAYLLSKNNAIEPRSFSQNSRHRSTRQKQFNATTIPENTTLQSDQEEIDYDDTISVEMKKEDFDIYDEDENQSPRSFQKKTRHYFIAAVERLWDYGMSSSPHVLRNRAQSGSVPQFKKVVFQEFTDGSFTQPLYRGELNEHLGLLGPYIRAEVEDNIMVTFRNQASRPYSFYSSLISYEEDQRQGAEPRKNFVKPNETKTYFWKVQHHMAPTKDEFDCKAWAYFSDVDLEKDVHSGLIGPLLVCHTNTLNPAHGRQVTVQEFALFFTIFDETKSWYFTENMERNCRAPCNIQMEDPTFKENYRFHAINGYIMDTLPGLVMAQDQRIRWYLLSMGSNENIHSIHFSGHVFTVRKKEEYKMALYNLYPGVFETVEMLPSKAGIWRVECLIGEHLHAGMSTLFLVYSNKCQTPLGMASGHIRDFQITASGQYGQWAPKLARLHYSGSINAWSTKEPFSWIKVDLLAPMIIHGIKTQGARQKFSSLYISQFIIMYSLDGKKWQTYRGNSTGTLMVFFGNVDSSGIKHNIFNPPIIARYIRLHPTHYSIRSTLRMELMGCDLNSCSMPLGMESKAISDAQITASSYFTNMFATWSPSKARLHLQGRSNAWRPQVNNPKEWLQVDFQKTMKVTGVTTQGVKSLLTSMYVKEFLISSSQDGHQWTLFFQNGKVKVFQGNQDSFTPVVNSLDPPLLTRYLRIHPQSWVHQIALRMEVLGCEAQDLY


What follows are binders tested against T1, recombinant Factor VIII (CSL627, …) (assay: SPR, anti-His capture).
Procedure: Binding kinetics were investigated by surface plasmon resonance using a Biacore 4000 biosensor at 37° C. Each mutant was captured from cell culture medium to a density of 40-150 RU on a CM-5 sensor chip pre-immobilised with anti-His antibody (14,000 RU). In an initial screening study, FVIII was injected over the captured mutants for 5 minutes at 1 nM and dissociation monitored for 5 minutes.
All sensorgrams were double referenced by subtraction of signals from a reference spot (containing only immobilised anti His antibody) and from a blank injection. Binding kinetics were determined by fitting the double referenced sensorgrams to a 1:1 kinetic model.

| Kd [pM] | koff [s⁻¹] | kon [M⁻¹ s⁻¹] | Binder |
| --- | --- | --- | --- |
| 29.7 | 0.000189 | 6.37e+06 | Hu-vWF[764-1270]-8His S764P-K773A (other) PLSCRPPMVALVCPADNLRAEGLECTKTCQNYDLECMSMGCVSGCLCPPGMVRHENRCVALERCPCFHQGKEYAPGETVKIGCNTCVCRDRKWNCTDHVCDATCSTIGMAHYLTFDGLKYLFPGECQYVLVQDYCGSNPGTFRILVGNKGCSHPSVKCKKRVTILVEGGEIELFDGEVNVKRPMKDETHFEVVESGRYIILLLGKALSVVWDRHLSISVVLKQTYQEKVCGLCGNFDGIQNNDLTSSNLQVEEDPVDFGNSWKVSSQCADTRKVPLDSSPATCHNNIMKQTMVDSSCRILTSDVFQDCNKLVDPEPYLDVCIYDTCSCESIGDCACFCDTIAAYAHVCAQHGKVVTWRTATLCPQSCEERNLRENGYECEWRYNSCAPACQVTCQHPEPLACPVQCVEGCHAHCPPGKILDELLQTCVDPEDCPVCEVAGRRFASGKKVTLNPSDPEHCQICHCDVVNLTCEACQEPGGLVVPPTDAPVSPTTLYVEDISEPPLHDFHHHHHHHH |
| 136 | 0.0024 | 1.77e+07 | Hu-vWF[764-1270]-8His S764P-K773D (other) PLSCRPPMVDLVCPADNLRAEGLECTKTCQNYDLECMSMGCVSGCLCPPGMVRHENRCVALERCPCFHQGKEYAPGETVKIGCNTCVCRDRKWNCTDHVCDATCSTIGMAHYLTFDGLKYLFPGECQYVLVQDYCGSNPGTFRILVGNKGCSHPSVKCKKRVTILVEGGEIELFDGEVNVKRPMKDETHFEVVESGRYIILLLGKALSVVWDRHLSISVVLKQTYQEKVCGLCGNFDGIQNNDLTSSNLQVEEDPVDFGNSWKVSSQCADTRKVPLDSSPATCHNNIMKQTMVDSSCRILTSDVFQDCNKLVDPEPYLDVCIYDTCSCESIGDCACFCDTIAAYAHVCAQHGKVVTWRTATLCPQSCEERNLRENGYECEWRYNSCAPACQVTCQHPEPLACPVQCVEGCHAHCPPGKILDELLQTCVDPEDCPVCEVAGRRFASGKKVTLNPSDPEHCQICHCDVVNLTCEACQEPGGLVVPPTDAPVSPTTLYVEDISEPPLHDFHHHHHHHH |
| 76.5 | 0.00515 | 6.73e+07 | Hu-vWF[764-1270]-8His S764P-K773E (other) PLSCRPPMVELVCPADNLRAEGLECTKTCQNYDLECMSMGCVSGCLCPPGMVRHENRCVALERCPCFHQGKEYAPGETVKIGCNTCVCRDRKWNCTDHVCDATCSTIGMAHYLTFDGLKYLFPGECQYVLVQDYCGSNPGTFRILVGNKGCSHPSVKCKKRVTILVEGGEIELFDGEVNVKRPMKDETHFEVVESGRYIILLLGKALSVVWDRHLSISVVLKQTYQEKVCGLCGNFDGIQNNDLTSSNLQVEEDPVDFGNSWKVSSQCADTRKVPLDSSPATCHNNIMKQTMVDSSCRILTSDVFQDCNKLVDPEPYLDVCIYDTCSCESIGDCACFCDTIAAYAHVCAQHGKVVTWRTATLCPQSCEERNLRENGYECEWRYNSCAPACQVTCQHPEPLACPVQCVEGCHAHCPPGKILDELLQTCVDPEDCPVCEVAGRRFASGKKVTLNPSDPEHCQICHCDVVNLTCEACQEPGGLVVPPTDAPVSPTTLYVEDISEPPLHDFHHHHHHHH |
